This is an account of results in paper PMC11144202, “Highly biased agonism for GPCR ligands via nanobody tethering” (Nature Communications, 2024).

Assay [1] addresses T1, native human type-1 parathyroid hormone receptor (hPTHR1) (Homo sapiens, UniProt Q03431).
T1 construct: type-1 parathyroid hormone receptor, human, unmodified receptor on the cell surface; also called WT PTHR1; WT-PTHR1; source: HEK293 (GS22) cells, stably expressing, on cells
Put plainly: flow cytometry on cells; biotin-labeled Nbs or conjugates (500 nM in Fig. 4A, or varying concentrations) incubated 30 min on ice in PBS with 2% BSA with HEK293 cells stably expressing the receptor; detection with streptavidin-APC. The following applies: one partner purified.

The target of assay [2] is T2, PTHR1 extracellular domain (ECD).
T2 chain: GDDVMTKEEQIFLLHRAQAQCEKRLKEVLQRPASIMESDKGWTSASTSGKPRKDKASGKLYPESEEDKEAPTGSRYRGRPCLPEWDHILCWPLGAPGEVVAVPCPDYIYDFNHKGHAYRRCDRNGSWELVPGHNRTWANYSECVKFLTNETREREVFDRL
The assay is described as follows: SPR; replicate 2; biotinylated Nb immobilized.

Assay [3] shares this target. Put plainly: SPR; replicate 1; biotinylated Nb immobilized. (In general: SPR reads the build-up and loss of mass on a sensor chip optically.)
The target of assay [4] is T3, PTHR1 extracellular domain (ECD) (Homo sapiens).
T3 construct: extracellular domain of the type-1 parathyroid hormone receptor; also called PTHR1 ECD; PTHR1 (ECD)
T3 chain: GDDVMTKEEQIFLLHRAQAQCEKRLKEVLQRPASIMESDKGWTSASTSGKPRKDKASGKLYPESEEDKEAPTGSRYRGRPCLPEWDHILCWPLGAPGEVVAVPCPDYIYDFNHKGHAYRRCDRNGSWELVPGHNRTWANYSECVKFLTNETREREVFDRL
Put plainly: SPR; Nb_(PTHR1) and PTHR1 ECD; details in Supplementary Methods. The following applies: both partners purified.

The target of assay [5] is T2, PTHR1 extracellular domain (ECD). The assay is described as follows: SPR; replicate 1; biotinylated Nb immobilized.
Assay [6] shares this target. Put plainly: SPR; replicate 2; biotinylated Nb immobilized.
Assay [7] has the same target. The assay is described as follows: SPR; mean of two experiments; biotinylated Nb immobilized.
Assay [8] has as its target T4, nanoluciferase-PTHR1 fusion (nLuc-PTHR1) (Homo sapiens, UniProt Q03431).
T4 construct: type-1 parathyroid hormone receptor with nanoluciferase fused to the receptor N-terminus; source: cell line stably expressing the construct, on cells; not shown: nanoluciferase, N-terminal, kept
The assay is described as follows: FRET or BRET; competition on cells expressing nLuc-PTHR1: Nb_(PTHR1)-TMR (1 uM) followed by unlabeled ligand (2 uM), or varying unlabeled ligand added together with Nb_(PTHR1)-TMR (300 nM). The following applies: one partner purified. Background: Bioluminescence resonance energy transfer reports proximity on the nanometre scale.

Assay [9] concerns the target T5, glucagon-like peptide-1 receptor (GLP1R) (UniProt P43220 24-463).
T5 chain: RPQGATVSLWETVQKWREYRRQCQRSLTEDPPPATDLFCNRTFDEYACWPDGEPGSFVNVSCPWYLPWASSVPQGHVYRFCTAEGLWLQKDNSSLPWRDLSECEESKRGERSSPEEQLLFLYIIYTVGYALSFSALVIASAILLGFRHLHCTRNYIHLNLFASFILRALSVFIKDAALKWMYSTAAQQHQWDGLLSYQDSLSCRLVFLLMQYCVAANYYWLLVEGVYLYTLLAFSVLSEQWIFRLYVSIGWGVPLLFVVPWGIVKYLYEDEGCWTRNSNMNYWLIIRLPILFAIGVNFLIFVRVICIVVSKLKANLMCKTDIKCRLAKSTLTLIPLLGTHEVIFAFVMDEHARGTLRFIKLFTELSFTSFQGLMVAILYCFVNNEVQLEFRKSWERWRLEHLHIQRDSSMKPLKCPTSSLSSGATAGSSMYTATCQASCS
The assay is described as follows: SPR; GLP1R-ECD; replicate 2.

The target in assay [10] is T5, glucagon-like peptide-1 receptor (GLP1R). Put plainly: SPR; GLP1R-ECD; replicate 2.
Assay [11] shares this target. The assay is described as follows: SPR; GLP1R-ECD; replicate 1.
Assay [12] shares this target. Put plainly: SPR; GLP1R-ECD; replicate 1.

T1 sequence (Q03431 27-593): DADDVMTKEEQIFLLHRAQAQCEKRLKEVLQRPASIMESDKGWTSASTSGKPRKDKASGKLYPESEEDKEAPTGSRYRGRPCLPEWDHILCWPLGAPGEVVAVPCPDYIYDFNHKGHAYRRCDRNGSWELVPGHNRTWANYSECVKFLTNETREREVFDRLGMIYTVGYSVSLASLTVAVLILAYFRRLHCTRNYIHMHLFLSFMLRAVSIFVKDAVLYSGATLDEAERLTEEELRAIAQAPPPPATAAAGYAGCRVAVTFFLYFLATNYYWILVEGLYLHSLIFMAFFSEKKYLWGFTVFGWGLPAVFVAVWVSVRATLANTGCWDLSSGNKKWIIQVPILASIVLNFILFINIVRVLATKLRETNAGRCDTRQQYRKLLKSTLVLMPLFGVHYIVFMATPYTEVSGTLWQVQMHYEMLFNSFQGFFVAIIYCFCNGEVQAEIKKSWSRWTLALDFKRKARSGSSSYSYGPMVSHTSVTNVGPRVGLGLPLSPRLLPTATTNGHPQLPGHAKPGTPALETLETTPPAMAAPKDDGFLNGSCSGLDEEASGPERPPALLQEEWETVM
T4 sequence (Q03431 27-593): as above

B1: Nb_(PTHR1-X2) labeled with biotin (VHH)
VHH: EVQLVESGGGLVQAGGSLRLSCAASGLTFSNYAMGWFRQAPGKEREWVASINWSGGSTYYEDSVEGRFTISRDNAKNTVNLQMNSLKPEDTAVYYCAAKRGHYSREYDYWGQGTQVTVSS
notes: as the chain of m8; His6 is lost in the sortase reaction; also called Nb_(PTHR-X2); source: E. coli BL21(DE3), purified (Ni-NTA, SEC), labeled by sortagging; not shown: His6, C-terminal, cleaved
In the case of B1, the binding result in assay [1] was “binds”.

B2: Nb_(PTHR1), unlabeled (VHH)
VHH: EVQLVESGGGLVQAGGSLRLSCAASGNIFANNIMGWYRQPPGKEREFVAHVSHDGDSMYAVSVKGRFAISRKDATNLYLQMNSLKPEDTAIYFCRLLNIPTQGRMEGFWGQGTQVTVSS
notes: Expressed from pET26b in frame with pelB and His6; the Nbs for sortagging bear LPETGG followed by His6 at the C-terminus; also called VHH_(PTHR); source: E. coli BL21(DE3), purified (Ni-NTA, SEC)
As for B2, the dissociation rate constant (koff) – broadly, the rate constant with which the complex falls apart – in [2] came out at 0.0015 s⁻¹; in assay [3] it was 0.0065 s⁻¹. The Kd – broadly, a measure of binding affinity in units of concentration – in assay [4] is around 1000 pM; in assay [5], 500 pM; in assay [6], 900 pM; in [7], 700 pM.

B3: Nb_(PTHR1)-TMR (tetramethylrhodamine-labeled Nb_(PTHR1)) (VHH)
VHH: EVQLVESGGGLVQAGGSLRLSCAASGNIFANNIMGWYRQPPGKEREFVAHVSHDGDSMYAVSVKGRFAISRKDATNLYLQMNSLKPEDTAIYFCRLLNIPTQGRMEGFWGQGTQVTVSS
notes: as the chain of m5; His6 is lost in the sortase reaction; also called TMR-Nb_(PTHR1); source: E. coli BL21(DE3), purified (Ni-NTA, SEC), labeled by sortagging; not shown: His6, C-terminal, cleaved
Regarding B3, in assay [8], the binding result is on record as “binds”.

B4: Nb_(PTHR1) labeled with biotin (VHH)
VHH: EVQLVESGGGLVQAGGSLRLSCAASGNIFANNIMGWYRQPPGKEREFVAHVSHDGDSMYAVSVKGRFAISRKDATNLYLQMNSLKPEDTAIYFCRLLNIPTQGRMEGFWGQGTQVTVSS
notes: as the chain of m5; His6 is lost in the sortase reaction (unreacted protein is captured on nickel NTA beads); also called biotin-labeled Nb_(PTHR1); source: E. coli BL21(DE3), purified (Ni-NTA, SEC), labeled by sortagging; not shown: His6, C-terminal, cleaved
On to B4, for which, in assay [1], the binding result was “binds”.

B5: Nb_(GLP1R) (VHH)
VHH: EVQLVESGGGLVQAGGSLRLSCAASGNTYSYKVMGWFRQAPGKEREFVGIIIRNGDTTYYADSVKGRFTISADNAKNTVYLQMNSLKPEDTAVYYCAASPKYMTAYERSYDWGQGTQVTVSS
In the case of B5, the Kd in [9] turned out to be 32000 pM; in [11], 24000 pM. For the same molecule, the figures for the off-rate (koff) in assay [10] and in assay [12] were 0.0013 s⁻¹ and 0.0041 s⁻¹, respectively.
